Transduction of 293HissFv.rec cells (luciferase activity) data for 1 substance are collected here from patent publication US20110189234A1.

In this assay the target is Tail-T(ii)-MH chimeric adenovirus spike protein (adenovirus serotype 5; reovirus type 3 Dearing) (UniProt P11818).

As to “anti-His antibody (penta-His MAb; Qiagen)”, the transduction of 293HissFv.rec cells (luciferase activity) was determined as 90%.
